Source: patent publication US20190351049A1 (Regeneron, published 2019)
Read-outs that look alike come from different tables or passages of the source.

B1: H2aM15279N (antibody, V domains shown)
VH: EVQLLESGGGLVQTGGSLRLSCAASGFTFSNYAMSWVRQAPGKGLEWVSAISDRGGSIYYADSVKGRFTISRDNSKNTKYLQMDSLRAEDTAVYYCAQDRGFGVFDYWGQGTLVTVSS
VL: DIQMTQSPSSLSASVGDRVTITCQASQDIGNYLNWFQQRPGKAPNLLIYGASNLETGVPSRFSGGGSGTDFTFTISSLQPEDIATYFCQQYDNLPFTFGPGTKVEIK
B2: H2aM15270N (antibody, V domains shown)
VH: EVQLLESGGGLEQPGGSLRLSCAASGFTFSSYAMIWVRQAPGKGLEWVSTISGSGVNTYYADSVKGRFTISRDNSKNTLHLQMNSLRAEDTAVYHCAKEGLDCANGVCYNYYGMDVWGQGTTVTVSS
VL: DIQMTQSPSSLSASVGDRVTITCRASQSINSFLNWYHQKPGKAPKFLIYSASNLQSGVPSRFSGSGSGTDFTLTISSLQPEDFSTYYCQQSYSIPLTFGGGTKVEIK
B3: H1M15293N (antibody, V domains shown)
VH: QVQLVQSGAEVKKPGSSVKVSCKVSGVTFSSYAISWVRQAPGQGLEWMGGIIPFFGTASYAQKFQGRVTVTTDESTSTAYMEVSSLRSEDTAVYYCARDNPELTKEGYYHYYAMDVWGQGTTVTVSS
VL: not shown
B4: H2bM15291N (antibody, V domains shown)
VH: QVQLVQSGAEVKKPGSSVKVSCKASGDTFSTYAVSWVRQAPGQGLEWMGGIIPFFGTSNYAQKFQGRVTITTDESTTTAYMELNSLRSEDTAVYYCAREITMVRGLTNYHFYGMDVWGQGTTVTVSS
VL: not shown
B5: H1M15290N (antibody, V domains shown)
VH: QVQLVQSGAEVKKPGSSVKVSCKASGGTFSTYAISWVRQAPGQGLEWMGGIIPFFGTANYAQKFQGRVTITTDESTSTAYMELSSLRSEDTAVYYCAREGTYYDSLTGYYTHYYRMDVWGQGTTVTVSS
VL: not shown
B6: H1M15277N (antibody, V domains shown)
V domain 1: EVQLLESGGGLVQPGGSLRLSCAASGFTFSSYAMSWVRQAPGKGLEWVSAISGRGGNTYYADSVKGRFTISRDNSKNTLFLQMNTLRAEDTAVYYCAKDRGFGFFDIWGRGTLATVSS
V domain 2: not shown
B7: H1H15211P (antibody, V domains shown)
VH: EVQLVESGGGLVQPGGSLRLSCVVSGFTFSNYDMSWVRQAPGRGLEWVSAIRGSGFNTYYADSVKGRFTISRDNSKNTLYLQMNSLRAEDTAVYYCAKDGSIVSMDYWGQGTLVTVSS
VL: not shown
B8: H1M15289N (antibody, V domains shown)
VH: QVQLQESGPGLVKPSETLSLTCTVSGGSISSYYWSWIRQPPGKGLEWIGYIYYSGSANYNPSLKSRVTISVDTSKNQFSLKLSSVTAADTAVYYCVRDRDLLLDHWGQGTLVTVSS
VL: EIVMTQSPATLSVSPGKRATLSCRASQSVSSNLAWYQQKPGQAPRLLIYGASTRTTGFPARFSGSGSGTDFTLTISSLQSEDFAVYYCQQYNNWPYTFGQGTMLEIK
B9: H2bM15292N (antibody, V domains shown)
VH: QVQLVQSGAEVKKPGSSVKVSCKASGGTFNNYAISWVRQAPGQGLEWMGGIIPFFGTTNYAQKFQDRVTITSDDSTITAYMELSRLRSEDTAVYYCARDEPRRDGYNYYHYYYMDVWGQGTTVTVSS
VL: DIQMTQSPSSLSASVGDRVTITCRASQSINSYLNWYQQKPGKAPNLLIYAASSLQSGVPSRFSGSGSGTDFTLTISSLHPEDFATYYCQQSYSTPPITFGQGTRLEIK
B10: H2aM15278N (antibody, V domains shown)
VH: QVQLVQSGAEVKKPGASVKVSCKASGYTFTSHGISWVRQAPGQGFEWMGWIGTYNSNTDYAQNFQGRVTMTTDTSTSTAYMELRNLRSDDTAVYYCARERGPYYGMDVWGQGTTVTVSS
VL: EIVLAQSPGTLSLSPGERATLSCRASQSVNSNYLAWYQQKPGQAPRLLIYGASSRATGIPDRFSGSGSGTDFTLTISRLEPEDFAVYYCQQYGNSLTFGPGTKVDFK
B11: H2aM15281N (antibody, V domains shown)
VH: QVQLVQSGAEVKKPGSSVKVSCKASKDTFSSYAISWVRQAPGQGLEWMGGIIPFFGTTTYEQKFQGRVTITTDESTRTAYMELSSLRSEDSAVYYCARDRPCISSAGTRYHYCVMDVWGQGTTVTVSS
VL: not shown
B12: H2aM15272N (antibody, V domains shown)
VH: QVRLVQSGAEVKKPGSSVKVSCKASGDTFSSYAISWVRQAPGQGLEWMGGIIPFFVTTTYAQNFQGRVTITTDESTRTAYMELSSLRSEDSAVYYCARDRPCISSAGTRYHYCVMDVWGQGTTVTVSS
VL: not shown
B13: H2aM15287N (antibody, V domains shown)
VH: QLQLQESGPGLVKPSETLSLTCTVSGGSISSGNYYWGWIRQPPGKGLEWFGTIYYSGSTYYNPSLKSRVTISVDTSKNQFSLKLSSVTAADTAVYYCARRAAVGHFDYWGQGTLVTVSS
VL: DIQMTQSPSTLSASVGDRVTITCRASQSISTWLAWYQQKPGKAPKLLIYEASSLESGVPSRFSGSGFGTEFTLTISRLQPDDFATYFCQQYNTYWTFGQGTKVEIK
B14: H2aM15271N (antibody, V domains shown)
VH: EVQLVESGGALVQPGGSLRLSCAASGFIFGSYEMNWVRQAPGKGLEWLSYISSSGSTIYYADSVKGRFTISRDNAKNSLYLQMNSLRAEDTAVYYCARERGQLGRGGYYYYGMDVWGQGTTVTVSS
VL: EIVLTRSPGTLSLSPGERATLSCRASQSVSSSYLAWYHQKPGQAPRLLMYGTSIRATGIPDRFSGSGSGTDFTLTISRLEPEDFAVYYCQQYGSSPPWTFGQGTKVEIK
B15: H1M15269N (antibody, V domains shown)
VH: EVQLLESGGGLVQPGGSLRLSCPASGFTFSNYAMTWVRQAPGKGLEWVSAISGSGATTKYADSVKGRFTISRDNSRNTLYLQMNSLRAEDTAVYYCAKGGSGSYFPYYYYGLDVWGQGTTVTVSS
VL: EIVMTQSPATLSVSPGDSATLSCRASQTVSSNLAWYQQKPGQAPRLLIYGASTRATGIPARFSGSGSGTEFTLTISSLQSEDFAVYYCQQYYNWWTFGQGTKVEIK
B16: H1M15267N (antibody, V domains shown)
VH: QVQLQESGPGLVKPSETLSLTCTVSGGSISSYYWSWIRQPPGKGLEWIGYIYYSGSPNYNPSLKSRVTISVDTSKNQFSLKLTSVTAADTAVYYCARSLNWGPPFDYWGQGTLVTVSS
VL: not shown
B17: H1M15280N (antibody, V domains shown)
VH: EVQLLESGGGLVQPGGSLRLSCAASGFTFSSYAMSWVRQAPGKGLEWVSAISGSGSSTYYADSVKGRFTISRDNSKNTLFLQMNSLRAEDTAVYYCAEGGDVDFDYWGQGTLVTVSS
VL: not shown

Assays:
[1] = target: T1, MERS-CoV spike protein (EMC/2012), wt (MERS-CoV (isolate EMC/2012), UniProt K9N5Q8 18-1353); assay: cell-based or functional assay
[2] = target: T1, MERS-CoV spike protein (EMC/2012), wt; assay: cell-based or functional assay; remark: listed apart in the source
MERS-RBD-mFc = MERS-RBD-mFc (MERS-CoV (isolate EMC/2012), UniProt K9N5Q8 367-606); assay: Octet BLI, MERS.mFc captured on the sensor, then mAb-1 applied
[3] = target: T1, MERS-CoV spike protein (EMC/2012), wt; assay: cell-based or functional assay; remark: listed apart in the source

Binder | IC50 against MERSpp [1] | IC50 against live virus (EMC2012) [1] | % Neutralization (.025 µg/ml), MERSpp infectivity [2] | Neutralization IC50 (M), MERSpp infectivity [2] | mAb-1 Binding (nm) (MERS-RBD-mFc) | IC50 against MERSpp [3] | IC50 against live virus (EMC2012) [3]
B1 | 93.9 pM | 825 pM | 97% | 1.38e-10 M |  |  | 
B2 | 102 pM | 711 pM | 98% | 3.25e-10 M |  |  | 
B3 | 258 pM | 2580 pM | 86% | 4.36e-10 M |  |  | 
B4 | 186 pM | 2220 pM | 90% | 3.05e-10 M |  |  | 
B5 | 210 pM | 2550 pM | 83% | 5.84e-10 M |  |  | 
B6 | 64.6 pM | 287 pM | 99% | 1.33e-10 M |  |  | 
B7 |  |  |  |  | 0.76 nm | 47.4 pM | 369 pM
B8 | 281 pM | 3150 pM | 89% | 4.25e-10 M |  |  | 
B9 | 113 pM | 2260 pM | 91% | 3.57e-10 M |  |  | 
B10 | 142 pM | 644 pM | 98% | 2.11e-10 M |  |  | 
B11 | 78.5 pM | 292 pM | 98% | 4.64e-10 M |  |  | 
B12 | 72.3 pM | 569 pM | 97% | 2.21e-10 M |  |  | 
B13 | 2930 pM | 8920 pM | 5% | 3.59e-09 M |  |  | 
B14 | 127 pM | 1030 pM | 97% | 2.74e-10 M |  |  | 
B15 | 688 pM | 6800 pM | 40% | 1.02e-09 M |  |  | 
B16 | 99.8 pM | 891 pM | 99% | 1.49e-10 M |  |  | 
B17 | 111 pM | 763 pM | 97% | 1.76e-10 M |  |  | 
